In article PMC3482342:

Assays:
[1] = molecular target: MukE (Escherichia coli) (UniProt P22524); conditions: cited from earlier work
[2] = molecular target: MukE-LLFR (MukE-L38S/L41A/F185S/R186E) (E. coli) (UniProt P22524); test: AUC

Sequence of MukE (P22524 whole entry): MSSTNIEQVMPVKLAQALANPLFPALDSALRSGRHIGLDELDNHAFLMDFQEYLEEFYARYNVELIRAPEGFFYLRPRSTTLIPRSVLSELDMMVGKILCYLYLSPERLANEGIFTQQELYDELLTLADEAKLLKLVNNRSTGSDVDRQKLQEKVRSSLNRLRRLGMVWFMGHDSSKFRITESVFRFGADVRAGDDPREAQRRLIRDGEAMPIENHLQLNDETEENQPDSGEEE

Row | Substance | Kd [1] | Kd [2]
1 | MukE (from UniProt P22524) | 18 µM | 
2 | MukE-LLFR (MukE-L38S/L41A/F185S/R186E) (from UniProt P22524 10-234) (natural protein) |  | 450 µM
